Assay: soluble on expression in E. coli; label from the status in PepcDB or PDB records

| Sequence | soluble on expression in E. coli |
| --- | --- |
| MSLIDARLATEIVVRTVEVMPFDVNVMDAHGVILASSDAARVGEIHAGAQLALARARAVEIDDAMAANLSGARPGINLPLSVRGKVCGVIGVTGEPDAVRGFGELLRVTAELILEREQLTVELRRNARHREEFVLQLLRRTAAAAELEAWADRLGIDMRLAHAAIVCRLSGVDTEPEAGVGQIEAMQSQLAQEWPQLLSAKTSYRELVMFDAVDARAGRDGVLATHAGKRLAALEDTLRKVATQPFSLALGIALDGIDGFERSYQCALATLRVGAARTPQRAAYSYYDFVLPVLLSALSQGWQARQLRLPLTRLLARERRSGALLDTLKAWYAHDGHPSATAQALGIHRNTLDYRLQQIRDATGLDLGAIDDRLWLYIALQTMAGEGHHHHHH | soluble |
| MAVKKIAIFGATGQTGLTTLAQAVQAGYEVTVLVRDSSRLPSEGPRPAHVVVGDVLQAADVDKTVAGQDAVIVLLGTRNDLSPTTVMSEGARNIVAAMKAHGVDKVVACTSAFLLWDPTKVPPRLQAVTDDHIRMHKVLRESGLKYVAVMPPHIGDQPLTGAYTVTLDGRGPSRVISKHDLGHFMLRCLTTDEYDGHSTYPSHQYQ | soluble |
| MNYGFNFLHNTIIMMIIRSIIFRNFLFSISQLSQLNNVNTCSIIFHSLFTHFQITSHFTQMAAASSAPHQMQVRVTFYTSHNPQSVLMILKNDQALQQISEKARELFPSADYRLYYGDVNGPIFEFTNSDQIMSKIRITTFSRTPQLFVRLETVPLRPTALPSVSTETAKKASDADRESKSRSSLKRIENNQELTLKTLEKLQKELSRVSALETMVADLHAKEREPVVEEVQKPFPPVKHSASCDACLGDIIGHRFKCLECADYDLCEKCERKSLHYEHAMIRIVEPKKTMIPSYVTSNSPNNVFPTYMQHKIQQPQTIKGINKTVITRLVPSHQVNPAPMPQAPPVSTPVPFPPSPTIGNGAVPKPAQEPRIPPSPTSALPPPQFFNEETRAAIINSAALLKETFSTLSRSFLDLADGAQANMDKKIIERSTMEAGMTKFEEKMDNLKRHCEEKYLGTETAEAEKSEESSKKQADSLSGPKIKKAKKKSCYKKSAERLFTMQLAAAAAEQARLEQEAKKRAEASSAELQRKLAELNVKESQSKSEENIADFVLYDLYGNSLEALLRGRSSSRIADPPTTPNTEPATTELASTTSATPAVTAPASIVPVTPTAPIVETLIVPPLPPVESNPEEVTPMVTAPISIHSSFENISSDFESLSPSWGGYPDLEAAQRLEVIDDNLLDFSDVAVEAQEAQEAQEEARPEPEQSLPPFNEETEKTFDRLLEMGFSYNVTVAAIRANGSNLEMCLQALLH | not soluble |
| SIAILVIMHGESTASSMVNVANTLLDCNHAVAINMGLEDRVQDILVQAVEIANKIDKGKGILILTDMGSILTFAKVIRDATGKEVKAIDMVSTPIVIEATRKALTPEMTLEKLYFNIIESIKKHYGDMEVTYAEKDNGGRY | not soluble |
| MQFYNRQKELKLMELLDQGKPSFFVITGKRRVGKTELIKQFTRNRKALYLFVDSNKSINILMDEFDRLLKEKLDLPDYIKVDEPENFLKFITSYDRDLVIAIDEFQRFQKVYPSFITQLQRYWDMKPDNCRIFLIVSGSSIGMIRKIFIEEQAPLFKRADNILTIKPFTVLETFEMLDGMGIKNPEEKLNLYFLFGGTVYYYRLFEKYQCTGFDDALEKLIFSEFAPLKNEVREILIEEFGKEHSTYYEIISAISQGRCSMSEISDMTHVSSSSLSPYFYDLIDLLGVVEHRIPVMDNPEKSKRGRYFLKDNFFRFYGRFIYPMYSRYMAGNYSPMLEKVRKEWQSYTGKIFEDIVHELLVEKMISDYPELGSWWNRKGDEIDILGVDHRGRKSLVIEVKNKELAENEAREILELTLDKTKLVKGISGQKLKVGIVAQKVKGRKNLEDDGFLVWELEELIPLEHHHHHH | not soluble |
| MFSPSTTTLFRFVECTEDQHALEILEILNDAIINSTALYDYKPRSKESMAAWFATKRQNNFPIIGAVNEVGQLLGFASWGSFRAFPAYKYTVEHSVYIHKDYRGLGLSKHLMNELIKRAVESEVHVMVGCIDATNVASIQLHQKLGFIHSGTIQQAGFKFGRWLDAAFYQLTLDTPLHPQDD | soluble |
| MSLKEVRYAMIHDESRCNGCNICARACRKTNHVPAQGSRLSIAHIPVTDNDNETQYHFFRQSCQHCEDAPCIDVCPTGASWRDEQGIVRVEKSQCIGCSYCIGACPYLVRYLNPVTKVADKCDFCAESRLAKGFPPICVSACPEHALIFGREDSPEIQAWLQDNKYYQYQLPGTGKPHLYRRFGQHLIKKENEGHHHHHH | not soluble |
